Experimental data published in the supplement of paper PMC9112550, “Optimization of the antimicrobial peptide Bac7 by deep mutational scanning” (BMC Biology, 2022).

Test system: Escherichia coli TOP10
Assay: shrunken log2 fold change of peptide-encoding DNA abundance (4.5 h post-induction vs induction); higher = less antimicrobial activity (less host growth inhibition)
Conditions: time post-induction: 4.5 h; library: site-saturation at positions 5, 18, 19, 20
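Further: peptides expressed intracellularly from a pBAD plasmid library in pooled LB shake-flask culture, induced with 0.3% L-arabinose, DNA abundance read by NGS, three biological replicates, DESeq2 with apeglm shrinkage.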

Sequence	shrunken log2 fold change
RRIRIRPPRLPRPRPRPKRMPRP	-0.518
RRIRYRPPRLPRPRPRPYTFPRP	0.041
RRIRDRPPRLPRPRPRPGHRPRP	-0.0741
RRIRCRPPRLPRPRPRPSCYPRP	-0.295
RRIRWRPPRLPRPRPRPRCKPRP	0.33
RRIRIRPPRLPRPRPRPMQKPRP	0.0387
RRIRGRPPRLPRPRPRPKKPPRP	-0.0158
RRIRIRPPRLPRPRPRPDAAPRP	0.432
RRIRSRPPRLPRPRPRPIWQPRP	-0.0554
RRIRKRPPRLPRPRPRPRDWPRP	0.935
RRIRARPPRLPRPRPRPDPEPRP	0.939
RRIRPRPPRLPRPRPRPILPPRP	0.198
RRIRKRPPRLPRPRPRPEYTPRP	0.0243
RRIRKRPPRLPRPRPRPYLVPRP	-0.634
RRIRGRPPRLPRPRPRPALNPRP	0.705
RRIRPRPPRLPRPRPRPQSFPRP	0.0475
RRIRERPPRLPRPRPRPLMNPRP	-0.336
RRIRARPPRLPRPRPRPHGDPRP	0.362
RRIRRRPPRLPRPRPRPISYPRP	0.0496
RRIRTRPPRLPRPRPRPHCQPRP	-0.359
RRIRNRPPRLPRPRPRPGREPRP	0.588
RRIRKRPPRLPRPRPRPHAQPRP	0.133
RRIRIRPPRLPRPRPRPAYKPRP	-1.89
RRIRHRPPRLPRPRPRPWFPPRP	-0.379
RRIRVRPPRLPRPRPRPVEEPRP	-0.143

Sequence	shrunken log2 fold change
RRIRMRPPRLPRPRPRPARDPRP	1.65
RRIRDRPPRLPRPRPRPWYGPRP	-0.87
RRIRTRPPRLPRPRPRPQAMPRP	0.00573
RRIRNRPPRLPRPRPRPGFVPRP	0.135
RRIRWRPPRLPRPRPRPHCWPRP	0.202
RRIRKRPPRLPRPRPRPSPQPRP	0.219
RRIRMRPPRLPRPRPRPQMTPRP	1.2
RRIRSRPPRLPRPRPRPMQIPRP	0.141
RRIRMRPPRLPRPRPRPKGPPRP	0.716
RRIRPRPPRLPRPRPRPFVWPRP	-0.0428
RRIRLRPPRLPRPRPRPEFPPRP	-0.0973
RRIRPRPPRLPRPRPRPNYDPRP	-0.388
RRIRCRPPRLPRPRPRPEHAPRP	0.999
RRIRLRPPRLPRPRPRPTEVPRP	-0.126
RRIRDRPPRLPRPRPRPSMTPRP	0.237
RRIRWRPPRLPRPRPRPLLLPRP	0.152
RRIRKRPPRLPRPRPRPQFPPRP	-0.00782
RRIRNRPPRLPRPRPRPAEPPRP	-0.00965
RRIRDRPPRLPRPRPRPTEFPRP	-0.0306
RRIRPRPPRLPRPRPRPESNPRP	0.0165
RRIRSRPPRLPRPRPRPPHTPRP	0.159
RRIRLRPPRLPRPRPRPQVEPRP	0.0591
RRIRPRPPRLPRPRPRPKWTPRP	-0.0336
RRIRHRPPRLPRPRPRPFWRPRP	-0.0343
RRIRPRPPRLPRPRPRPDEGPRP	-0.188

Sequence	shrunken log2 fold change
RRIRKRPPRLPRPRPRPMRRPRP	0.762
RRIRSRPPRLPRPRPRPFSEPRP	0.00901
RRIRERPPRLPRPRPRPFCWPRP	0.0996
RRIRTRPPRLPRPRPRPIGTPRP	0.0179
RRIRRRPPRLPRPRPRPFDKPRP	0.0721
RRIRWRPPRLPRPRPRPMVQPRP	0.121
RRIRQRPPRLPRPRPRPVGFPRP	0.00249
RRIRTRPPRLPRPRPRPHLQPRP	-0.321
RRIRHRPPRLPRPRPRPCVHPRP	-0.00151
RRIRARPPRLPRPRPRPGIEPRP	0.108
RRIRSRPPRLPRPRPRPDDGPRP	0.00408
RRIRSRPPRLPRPRPRPDNNPRP	-0.268
RRIRRRPPRLPRPRPRPPTYPRP	0.0139
RRIRWRPPRLPRPRPRPLRKPRP	0.944
RRIRTRPPRLPRPRPRPTIWPRP	0.03
RRIRVRPPRLPRPRPRPCRMPRP	-0.0641
RRIRMRPPRLPRPRPRPLPKPRP	1.11
RRIRGRPPRLPRPRPRPQGFPRP	0.441
RRIRKRPPRLPRPRPRPDVMPRP	-0.0462
RRIRKRPPRLPRPRPRPYIFPRP	-0.129
RRIRMRPPRLPRPRPRPHDYPRP	1.54
RRIRARPPRLPRPRPRPNSSPRP	0.184
RRIRERPPRLPRPRPRPRMAPRP	0.2
RRIRFRPPRLPRPRPRPTTGPRP	-0.0819
RRIRDRPPRLPRPRPRPYGDPRP	-0.0996

Sequence	shrunken log2 fold change
RRIRVRPPRLPRPRPRPYSHPRP	-1.25
RRIRERPPRLPRPRPRPTFQPRP	-0.103
RRIRARPPRLPRPRPRPYICPRP	-0.326
RRIRIRPPRLPRPRPRPRSPPRP	0.0527
RRIRDRPPRLPRPRPRPFAPPRP	0.318
RRIRLRPPRLPRPRPRPDADPRP	1.25
RRIRWRPPRLPRPRPRPVAFPRP	0.313
RRIRFRPPRLPRPRPRPKKQPRP	0.0157
RRIRMRPPRLPRPRPRPYDDPRP	-0.00329
RRIRQRPPRLPRPRPRPHKAPRP	-0.0398
RRIRQRPPRLPRPRPRPNICPRP	0.0129
RRIRHRPPRLPRPRPRPCNCPRP	0.0668
RRIRNRPPRLPRPRPRPRPSPRP	0.443
RRIRCRPPRLPRPRPRPYDEPRP	-0.144
RRIRWRPPRLPRPRPRPRALPRP	0.354
RRIRVRPPRLPRPRPRPPGIPRP	0.154
RRIRPRPPRLPRPRPRPIIRPRP	-0.168
RRIRDRPPRLPRPRPRPVHLPRP	-0.23
RRIRPRPPRLPRPRPRPYKNPRP	-0.775
RRIRARPPRLPRPRPRPIWAPRP	0.439
RRIRQRPPRLPRPRPRPTDDPRP	-0.0703
RRIRHRPPRLPRPRPRPAEYPRP	0.034
RRIRKRPPRLPRPRPRPGLRPRP	0.708
RRIRFRPPRLPRPRPRPFPYPRP	-0.445
RRIRNRPPRLPRPRPRPNSEPRP	-0.258

Sequence	shrunken log2 fold change
RRIRKRPPRLPRPRPRPIFRPRP	0.132
RRIRTRPPRLPRPRPRPRHFPRP	-0.085
RRIRDRPPRLPRPRPRPLKFPRP	0.0649
RRIRRRPPRLPRPRPRPKFRPRP	-0.0588
RRIRIRPPRLPRPRPRPLLKPRP	-0.428
RRIRCRPPRLPRPRPRPMMYPRP	-0.12
RRIRIRPPRLPRPRPRPMYAPRP	-0.191
RRIRPRPPRLPRPRPRPVYMPRP	-1.1
RRIRRRPPRLPRPRPRPNKDPRP	0.202
RRIRFRPPRLPRPRPRPMVAPRP	0.297
RRIRCRPPRLPRPRPRPVNMPRP	-0.179
RRIRIRPPRLPRPRPRPPCNPRP	-0.449
RRIRPRPPRLPRPRPRPWKVPRP	-0.0967
RRIRSRPPRLPRPRPRPYNHPRP	-1.54
RRIRMRPPRLPRPRPRPMVNPRP	-0.254
RRIRSRPPRLPRPRPRPDMNPRP	0.0168
RRIRIRPPRLPRPRPRPLVLPRP	-0.458
RRIRWRPPRLPRPRPRPKDNPRP	-0.00672
RRIRIRPPRLPRPRPRPRLAPRP	0.237
RRIRVRPPRLPRPRPRPLNDPRP	0.171
RRIRKRPPRLPRPRPRPDDIPRP	0.0454
RRIRMRPPRLPRPRPRPVFTPRP	0.128
RRIRNRPPRLPRPRPRPAKGPRP	-0.051
RRIRNRPPRLPRPRPRPRYLPRP	-0.547
RRIRTRPPRLPRPRPRPCWQPRP	0.0902

Sequence	shrunken log2 fold change
RRIRFRPPRLPRPRPRPHMWPRP	-0.951
RRIRQRPPRLPRPRPRPKMLPRP	0.0996
RRIRNRPPRLPRPRPRPPAHPRP	0.626
RRIRSRPPRLPRPRPRPCNDPRP	-0.261
RRIRWRPPRLPRPRPRPPYAPRP	0.426
RRIRYRPPRLPRPRPRPHFWPRP	-0.257
RRIRPRPPRLPRPRPRPLDQPRP	0.0885
RRIRHRPPRLPRPRPRPPQPPRP	0.216
RRIRQRPPRLPRPRPRPRNIPRP	-0.0833
RRIRDRPPRLPRPRPRPVKIPRP	-0.101
RRIRFRPPRLPRPRPRPKPLPRP	0.433
RRIRQRPPRLPRPRPRPIGCPRP	0.0253
RRIRTRPPRLPRPRPRPMVDPRP	-0.00822
RRIRMRPPRLPRPRPRPKTVPRP	0.847
RRIRSRPPRLPRPRPRPQSNPRP	-0.613
RRIRKRPPRLPRPRPRPAATPRP	0.838
RRIRCRPPRLPRPRPRPVSIPRP	-0.549
RRIRQRPPRLPRPRPRPWTPPRP	-0.061
RRIRWRPPRLPRPRPRPPLPPRP	1.07
RRIRQRPPRLPRPRPRPEYMPRP	-0.0613
RRIRNRPPRLPRPRPRPMAKPRP	0.0197
RRIRDRPPRLPRPRPRPACDPRP	0.472
RRIRKRPPRLPRPRPRPKREPRP	0.393
RRIRPRPPRLPRPRPRPQMTPRP	2.25
RRIRFRPPRLPRPRPRPSATPRP	0.0473
